Assay results as given in patent publication US20220242906A1 (AGENCY FOR SCIENCE TECHNOLOGY AND RESEARCH, published 2022).

B1: PHAGESOL (KKRYSRDQLVAL) (peptide)
peptide: KKRYSRDQLVAL
notes: Phage-derived linear peptive with the canonical motif; also called PHAGSOL; PhageSol peptide
B2: EE-19 (peptide)
peptide: ACDMGFFQDCG
HELM: PEPTIDE1{A.C.D.M.G.F.F.Q.D.C.G.[am]}$PEPTIDE1,PEPTIDE1,2:R3-10:R3$$$V2.0
SMILES: CSCC[C@@H]1NC(=O)[C@H](CC(=O)O)NC(=O)[C@@H](NC(=O)[C@H](C)N)CSSC[C@@H](C(=O)NCC(N)=O)NC(=O)[C@H](CC(=O)O)NC(=O)[C@H](CCC(N)=O)NC(=O)[C@H](Cc2ccccc2)NC(=O)[C@H](Cc2ccccc2)NC(=O)CNC1=O
notes: EE-02 with E3D
B3: EE-20 (peptide)
peptide: ACEIGFFQDCG
HELM: PEPTIDE1{A.C.E.I.G.F.F.Q.D.C.G.[am]}$PEPTIDE1,PEPTIDE1,2:R3-10:R3$$$V2.0
SMILES: CC[C@H](C)[C@@H]1NC(=O)[C@H](CCC(=O)O)NC(=O)[C@@H](NC(=O)[C@H](C)N)CSSC[C@@H](C(=O)NCC(N)=O)NC(=O)[C@H](CC(=O)O)NC(=O)[C@H](CCC(N)=O)NC(=O)[C@H](Cc2ccccc2)NC(=O)[C@H](Cc2ccccc2)NC(=O)CNC1=O
notes: EE-02 with M4I
B4: EE-21 (peptide)
peptide: ACELGFFQDCG
HELM: PEPTIDE1{A.C.E.L.G.F.F.Q.D.C.G.[am]}$PEPTIDE1,PEPTIDE1,2:R3-10:R3$$$V2.0
SMILES: CC(C)C[C@@H]1NC(=O)[C@H](CCC(=O)O)NC(=O)[C@@H](NC(=O)[C@H](C)N)CSSC[C@@H](C(=O)NCC(N)=O)NC(=O)[C@H](CC(=O)O)NC(=O)[C@H](CCC(N)=O)NC(=O)[C@H](Cc2ccccc2)NC(=O)[C@H](Cc2ccccc2)NC(=O)CNC1=O
notes: EE-02 with M4L
B5: EE-30 (ACEMGYFQDCG) (peptide)
peptide: ACEMGYFQDCG
HELM: PEPTIDE1{A.C.E.M.G.Y.F.Q.D.C.G.[am]}$PEPTIDE1,PEPTIDE1,2:R3-10:R3$$$V2.0
SMILES: CSCC[C@@H]1NC(=O)[C@H](CCC(=O)O)NC(=O)[C@@H](NC(=O)[C@H](C)N)CSSC[C@@H](C(=O)NCC(N)=O)NC(=O)[C@H](CC(=O)O)NC(=O)[C@H](CCC(N)=O)NC(=O)[C@H](Cc2ccccc2)NC(=O)[C@H](Cc2ccc(O)cc2)NC(=O)CNC1=O
notes: EE-02 with F6Y
B6: EE-31 (peptide)
peptide: ACEMGWFQDCG
HELM: PEPTIDE1{A.C.E.M.G.W.F.Q.D.C.G.[am]}$PEPTIDE1,PEPTIDE1,2:R3-10:R3$$$V2.0
SMILES: CSCC[C@@H]1NC(=O)[C@H](CCC(=O)O)NC(=O)[C@@H](NC(=O)[C@H](C)N)CSSC[C@@H](C(=O)NCC(N)=O)NC(=O)[C@H](CC(=O)O)NC(=O)[C@H](CCC(N)=O)NC(=O)[C@H](Cc2ccccc2)NC(=O)[C@H](Cc2c[nH]c3ccccc23)NC(=O)CNC1=O
notes: EE-02 with F6W
B7: EE-35 (ACEMGFYQDCG) (peptide)
peptide: ACEMGFYQDCG
HELM: PEPTIDE1{A.C.E.M.G.F.Y.Q.D.C.G.[am]}$PEPTIDE1,PEPTIDE1,2:R3-10:R3$$$V2.0
SMILES: CSCC[C@@H]1NC(=O)[C@H](CCC(=O)O)NC(=O)[C@@H](NC(=O)[C@H](C)N)CSSC[C@@H](C(=O)NCC(N)=O)NC(=O)[C@H](CC(=O)O)NC(=O)[C@H](CCC(N)=O)NC(=O)[C@H](Cc2ccc(O)cc2)NC(=O)[C@H](Cc2ccccc2)NC(=O)CNC1=O
notes: EE-02 with F7Y
B8: EE-36 (peptide)
peptide: ACEMGFWQDCG
HELM: PEPTIDE1{A.C.E.M.G.F.W.Q.D.C.G.[am]}$PEPTIDE1,PEPTIDE1,2:R3-10:R3$$$V2.0
SMILES: CSCC[C@@H]1NC(=O)[C@H](CCC(=O)O)NC(=O)[C@@H](NC(=O)[C@H](C)N)CSSC[C@@H](C(=O)NCC(N)=O)NC(=O)[C@H](CC(=O)O)NC(=O)[C@H](CCC(N)=O)NC(=O)[C@H](Cc2c[nH]c3ccccc23)NC(=O)[C@H](Cc2ccccc2)NC(=O)CNC1=O
notes: EE-02 with F7W
B9: EE-37 (peptide)
peptide: ACEMGYYQDCG
HELM: PEPTIDE1{A.C.E.M.G.Y.Y.Q.D.C.G.[am]}$PEPTIDE1,PEPTIDE1,2:R3-10:R3$$$V2.0
SMILES: CSCC[C@@H]1NC(=O)[C@H](CCC(=O)O)NC(=O)[C@@H](NC(=O)[C@H](C)N)CSSC[C@@H](C(=O)NCC(N)=O)NC(=O)[C@H](CC(=O)O)NC(=O)[C@H](CCC(N)=O)NC(=O)[C@H](Cc2ccc(O)cc2)NC(=O)[C@H](Cc2ccc(O)cc2)NC(=O)CNC1=O
notes: EE-02 with F6Y and F7Y
B10: EE-39 (ACEMGFFKDCG) (peptide)
peptide: ACEMGFFKDCG
HELM: PEPTIDE1{A.C.E.M.G.F.F.K.D.C.G.[am]}$PEPTIDE1,PEPTIDE1,2:R3-10:R3$$$V2.0
SMILES: CSCC[C@@H]1NC(=O)[C@H](CCC(=O)O)NC(=O)[C@@H](NC(=O)[C@H](C)N)CSSC[C@@H](C(=O)NCC(N)=O)NC(=O)[C@H](CC(=O)O)NC(=O)[C@H](CCCCN)NC(=O)[C@H](Cc2ccccc2)NC(=O)[C@H](Cc2ccccc2)NC(=O)CNC1=O
notes: EE-02 with Q8K
B11: EE-40 (peptide)
peptide: ACEMGFFGDCG
HELM: PEPTIDE1{A.C.E.M.G.F.F.G.D.C.G.[am]}$PEPTIDE1,PEPTIDE1,2:R3-10:R3$$$V2.0
SMILES: CSCC[C@@H]1NC(=O)[C@H](CCC(=O)O)NC(=O)[C@@H](NC(=O)[C@H](C)N)CSSC[C@@H](C(=O)NCC(N)=O)NC(=O)[C@H](CC(=O)O)NC(=O)CNC(=O)[C@H](Cc2ccccc2)NC(=O)[C@H](Cc2ccccc2)NC(=O)CNC1=O
notes: EE-02 with Q8G
B12: EE-41 (ACEMGFFLDCG) (peptide)
peptide: ACEMGFFLDCG
HELM: PEPTIDE1{A.C.E.M.G.F.F.L.D.C.G.[am]}$PEPTIDE1,PEPTIDE1,2:R3-10:R3$$$V2.0
SMILES: CSCC[C@@H]1NC(=O)[C@H](CCC(=O)O)NC(=O)[C@@H](NC(=O)[C@H](C)N)CSSC[C@@H](C(=O)NCC(N)=O)NC(=O)[C@H](CC(=O)O)NC(=O)[C@H](CC(C)C)NC(=O)[C@H](Cc2ccccc2)NC(=O)[C@H](Cc2ccccc2)NC(=O)CNC1=O
notes: EE-02 with Q8L
B13: EE-22 (peptide)
peptide: ACEXGFFQDCG
modifications: norleucine (Nle) at position 4; free N-terminal amine; C-terminal amide; disulphide bond between Cys2 and Cys10
notes: EE-02 with M4 replaced by norleucine
B14: EE-23 (peptide)
peptide: ACEXGFFQDCG
HELM: PEPTIDE1{A.C.E.[O=C([C@H](CC1CCC1)N[*:1])[*:2]].G.F.F.Q.D.C.G.[am]}$PEPTIDE1,PEPTIDE1,2:R3-10:R3$$$V2.0
SMILES: C[C@H](N)C(=O)N[C@H]1CSSC[C@@H](C(=O)NCC(N)=O)NC(=O)[C@H](CC(=O)O)NC(=O)[C@H](CCC(N)=O)NC(=O)[C@H](Cc2ccccc2)NC(=O)[C@H](Cc2ccccc2)NC(=O)CNC(=O)[C@H](CC2CCC2)NC(=O)[C@H](CCC(=O)O)NC1=O
notes: EE-02 with M4 replaced by cyclobutylalanine
B15: EE-28 (peptide)
peptide: ACEMXFFQDCG
modifications: sarcosine (Sar) at position 5; free N-terminal amine; C-terminal amide; disulphide bond between Cys2 and Cys10
notes: EE-02 with G5 replaced by sarcosine
B16: EE-44 (CEMGFFADC) (peptide)
peptide: CEMGFFADC
HELM: PEPTIDE1{C.E.M.G.F.F.A.D.C.[am]}$PEPTIDE1,PEPTIDE1,1:R3-9:R3$$$V2.0
SMILES: CSCC[C@@H]1NC(=O)[C@H](CCC(=O)O)NC(=O)[C@@H](N)CSSC[C@@H](C(N)=O)NC(=O)[C@H](CC(=O)O)NC(=O)[C@H](C)NC(=O)[C@H](Cc2ccccc2)NC(=O)[C@H](Cc2ccccc2)NC(=O)CNC1=O
notes: EE-02 without A1 and G11 and with Q8A

Legend:
[1] = target: T1, elongation initiation factor 4E (eIF4E) (UniProt P06730 2-217, limits assumed); assay: competitive fluorescence anisotropy, panel 'Peptide Interaction Site': displacement of the FAM labelled tracer peptide …-(FAM) (50 nM) from eIF4E (200 nM) [cont'd) B]
T1 construct: mature; In SPR it was amine-coupled to a CM5 chip with m7GTP present; also called full-length eIF4E; GS-eIF4E (biotinylated form used only for phage panning)
Procedure: Apparent Kd values were then determined for a variety of molecules via competitive anisotropy experiments.
[L]ₛₜ and [L]ₜ denote labeled ligand and total unlabeled ligand input concentrations, respectively. Kd2 is the dissociation constant of the interaction between the unlabelled ligand and the protein. In all competitive types of experiments, it is assumed that [P]ₜ>[L]ₛₜ, otherwise considerable amounts of free labeled ligand would always be present and would interfere with measurements. Kd1 is the apparent Kd for the labeled peptide used in the respective experiment. […] Readings were carried out with a Envision Multi-label Reader (PerkinElmer). […] All titrations were carried out in triplicate. Curve-fitting was carried out using Prism 4.0 (GraphPad).

[2] = target: T1, elongation initiation factor 4E (eIF4E); assay: SPR (Biacore T100), eIF4E immobilised on CM5 chip, peptide as analyte
Procedure: Running buffer consisted of 10 mM Hepes pH 7.6, 0.15 M NaCl, and 0.1% Tween20. Stock/DMSO diluted peptide solutions were diluted into 1.03× running buffer to make a peptide solution with 3% DMSO final concentration. […] Surface Plasmon resonance experiments were performed on a Biacore T100 machine.
Pure eIF4E was immnobilized on a CM5 sensor chip. The CM5 chip was conditioned with a 6 s injection of 100 mM HCL, followed by a 6 s injection of 0.1% SDS and completed with a 6 s injection of 50 mM NaOH at a flow rate of 100 μl/min. Activation of the sensor chip surface was performed with a mixture of NHS (115 mg ml⁻¹) and EDC (750 mg ml⁻¹) for 7 min at 10 μl min⁻¹. Purified eIF4E was diluted with 10 mM sodium acetate buffer (pH 5.0) to a final concentration of 0.5 μM with m⁷GTP present in a 2:1 ratio in order to stabilize eIF4E. The amount of eIF4E immobilized on the activated surface was controlled by altering the contact time of the protein solution and was approximately 1000 RU. After the immobilization of the protein, a 7-min injection (at 10 μl min⁻¹) of 1 M ethanolamine (pH 8.5) was used to quench excess active succinimide ester groups.
Six buffer blanks were first injected to equilibrate the instrument fully and then a solvent correction curve was performed followed by a further two blank injections. […] Using a flow rate of 50 μl/min, compounds were injected for 60 s and dissociation was monitored for 180 s. The data collection rate was 10 Hz. Kds were determined using the BiaEvaluation software (Biacore) and calculated from both the response of the eIF4E coated CM5 chips at equilibrium and also kinetically from the dissociation and association phase data for each of the peptides. Both the equilibrium and kinetic data were fitted to 1:1 binding models. Each individual peptide Kd was determined from three separate titrations. Within each titration at least two concentration points were duplicated to ensure stability and robustness of the chip surface.

T1 sequence (P06730 2-217 limits assumed): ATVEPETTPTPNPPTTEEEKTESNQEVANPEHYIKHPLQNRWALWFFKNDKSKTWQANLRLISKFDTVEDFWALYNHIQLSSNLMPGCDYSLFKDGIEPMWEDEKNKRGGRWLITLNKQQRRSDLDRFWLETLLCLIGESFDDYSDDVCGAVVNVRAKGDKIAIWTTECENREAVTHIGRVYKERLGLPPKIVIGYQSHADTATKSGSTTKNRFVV

Binder	IC50 (read off the curve) [1] [nM]	Kd [2] [nM]	Fold change (KD against EE-2) [2] [fold]
B1	~400		
B2		26000	
B3		1600	
B4		2500	
B5		85	
B6		5900	
B7		137	
B8		2600	
B9		350	
B10		109	0.5
B11		400	1.9
B12		190	0.9
B13		520	
B14		35000	
B15		4200	
B16		79	0.4
